{"source": "patent US20220010021A1", "about": "(Sanofi, published 2022); on Mean E max (%): reference of the scale not given here", "key": {"[1]": {"target": "human FGFR1c/KLB cell surface receptor complex on iLite FGF21 reporter cells (human, UniProt P11362 22-822; Q86Z14 1-1044)", "sequence (P11362 22-822, chain 1 of 2)": "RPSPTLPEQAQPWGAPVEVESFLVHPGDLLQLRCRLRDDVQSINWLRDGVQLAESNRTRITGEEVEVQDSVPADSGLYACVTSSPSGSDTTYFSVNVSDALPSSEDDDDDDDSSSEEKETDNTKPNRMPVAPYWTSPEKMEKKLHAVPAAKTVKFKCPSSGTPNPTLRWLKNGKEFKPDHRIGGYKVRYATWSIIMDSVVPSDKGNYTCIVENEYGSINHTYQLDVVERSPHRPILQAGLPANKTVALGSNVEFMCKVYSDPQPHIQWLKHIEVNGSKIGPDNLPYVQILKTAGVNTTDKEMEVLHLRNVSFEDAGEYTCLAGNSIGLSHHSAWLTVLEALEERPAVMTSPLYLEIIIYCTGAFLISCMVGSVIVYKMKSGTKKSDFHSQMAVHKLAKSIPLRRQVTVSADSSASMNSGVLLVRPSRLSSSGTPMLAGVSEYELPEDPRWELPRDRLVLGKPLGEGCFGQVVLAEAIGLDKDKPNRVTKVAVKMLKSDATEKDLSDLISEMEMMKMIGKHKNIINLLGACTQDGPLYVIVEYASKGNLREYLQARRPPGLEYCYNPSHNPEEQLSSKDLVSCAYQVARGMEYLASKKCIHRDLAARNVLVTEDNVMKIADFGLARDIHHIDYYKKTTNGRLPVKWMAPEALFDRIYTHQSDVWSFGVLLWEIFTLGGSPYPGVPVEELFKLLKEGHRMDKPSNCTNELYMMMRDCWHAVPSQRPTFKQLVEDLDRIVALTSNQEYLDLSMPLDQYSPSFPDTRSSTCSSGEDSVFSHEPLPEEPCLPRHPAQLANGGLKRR", "sequence (Q86Z14 whole entry, chain 2 of 2)": "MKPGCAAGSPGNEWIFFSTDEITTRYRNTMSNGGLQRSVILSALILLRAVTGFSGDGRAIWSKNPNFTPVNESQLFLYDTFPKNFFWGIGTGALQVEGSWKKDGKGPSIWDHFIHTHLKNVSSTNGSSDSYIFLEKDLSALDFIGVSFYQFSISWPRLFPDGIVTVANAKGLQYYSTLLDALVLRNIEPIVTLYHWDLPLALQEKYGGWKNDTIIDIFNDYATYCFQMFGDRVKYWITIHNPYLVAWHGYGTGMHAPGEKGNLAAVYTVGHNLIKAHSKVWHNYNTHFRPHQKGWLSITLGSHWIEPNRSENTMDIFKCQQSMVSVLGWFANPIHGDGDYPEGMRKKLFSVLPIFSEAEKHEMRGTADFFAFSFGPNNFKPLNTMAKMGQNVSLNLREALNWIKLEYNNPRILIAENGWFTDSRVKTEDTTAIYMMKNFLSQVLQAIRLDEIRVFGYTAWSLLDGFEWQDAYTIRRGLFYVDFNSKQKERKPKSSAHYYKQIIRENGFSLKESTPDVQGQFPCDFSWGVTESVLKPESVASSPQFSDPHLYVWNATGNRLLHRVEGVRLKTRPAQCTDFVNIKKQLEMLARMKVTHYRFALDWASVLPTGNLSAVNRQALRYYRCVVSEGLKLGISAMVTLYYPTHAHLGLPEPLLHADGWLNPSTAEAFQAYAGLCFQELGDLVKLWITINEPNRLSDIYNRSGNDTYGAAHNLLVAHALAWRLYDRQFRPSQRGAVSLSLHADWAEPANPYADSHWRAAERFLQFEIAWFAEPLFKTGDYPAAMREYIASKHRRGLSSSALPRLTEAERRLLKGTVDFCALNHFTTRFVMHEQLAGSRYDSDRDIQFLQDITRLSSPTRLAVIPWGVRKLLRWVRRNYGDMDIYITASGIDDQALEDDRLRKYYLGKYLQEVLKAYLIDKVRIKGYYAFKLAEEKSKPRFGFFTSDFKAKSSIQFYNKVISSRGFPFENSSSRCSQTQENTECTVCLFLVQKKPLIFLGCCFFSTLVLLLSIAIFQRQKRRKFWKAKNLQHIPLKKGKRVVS", "assay": "cell-based or functional assay"}, "[2]": {"target": "T1, human beta-Klotho (KLB) (human, UniProt Q86Z14 53-997)", "T1 construct": "also called human KLB", "T1 sequence (looked up)": "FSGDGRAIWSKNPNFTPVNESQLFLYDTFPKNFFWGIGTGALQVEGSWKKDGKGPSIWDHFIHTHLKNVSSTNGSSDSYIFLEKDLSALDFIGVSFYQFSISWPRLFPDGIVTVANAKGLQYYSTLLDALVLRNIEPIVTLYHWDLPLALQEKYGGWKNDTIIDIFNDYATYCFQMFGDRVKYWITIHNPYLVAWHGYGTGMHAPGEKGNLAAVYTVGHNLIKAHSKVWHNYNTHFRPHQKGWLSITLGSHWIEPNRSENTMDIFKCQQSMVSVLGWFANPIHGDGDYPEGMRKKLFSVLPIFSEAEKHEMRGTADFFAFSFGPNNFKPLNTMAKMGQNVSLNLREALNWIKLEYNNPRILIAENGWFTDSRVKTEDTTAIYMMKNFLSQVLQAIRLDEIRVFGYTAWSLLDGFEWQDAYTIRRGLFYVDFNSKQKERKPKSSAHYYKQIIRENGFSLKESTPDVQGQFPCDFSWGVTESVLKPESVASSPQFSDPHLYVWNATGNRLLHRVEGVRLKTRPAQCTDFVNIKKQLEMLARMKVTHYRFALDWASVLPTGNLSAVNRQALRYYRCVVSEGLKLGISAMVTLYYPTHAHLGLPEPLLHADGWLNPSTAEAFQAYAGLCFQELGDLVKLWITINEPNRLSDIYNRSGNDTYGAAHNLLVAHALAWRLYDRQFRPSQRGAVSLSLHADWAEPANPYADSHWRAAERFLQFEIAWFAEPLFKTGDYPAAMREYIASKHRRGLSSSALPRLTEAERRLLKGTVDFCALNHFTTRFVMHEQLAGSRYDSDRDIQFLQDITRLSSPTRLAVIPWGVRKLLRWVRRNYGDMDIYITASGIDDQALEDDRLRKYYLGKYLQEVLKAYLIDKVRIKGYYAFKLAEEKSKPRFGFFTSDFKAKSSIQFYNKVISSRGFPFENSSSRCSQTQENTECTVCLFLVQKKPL", "assay": "BLI off-rate screen (Octet), Ab captured via Fc;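 further: antibody supernatants applied at 25 µg/mL, dissociation monitored over 1800 s in D-PBS with 0.1% BSA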"}}}
{"binder": "16H7 variant, light chain S55E (antibody, IgG4, V domains shown, IgG4 backbone; copies: 2 + 2) VH: not shown VL: SYVLTQPPSVSVAPGQTARITCGGNNIGSESVHWYQQKPGQAPVLVVYDDSDRPEGIPERFSGSNSGNTATLTISRVEAGDEADYYCQVWDGNSDHVVFGGGTKLTVLG", "values": [{"measurement": "Mean E max (%)", "setting": "[1]", "value": 106, "unit": "%"}, {"measurement": "Mean EC50", "setting": "[1]", "value": 141, "unit": "pM"}, {"measurement": "koff", "setting": "[2]", "value": "3.8e-05", "unit": "s⁻¹"}]}
{"binder": "16H7 variant, light chain S55R (antibody, IgG4, V domains shown, IgG4 backbone; copies: 2 + 2) VH: not shown VL: SYVLTQPPSVSVAPGQTARITCGGNNIGSESVHWYQQKPGQAPVLVVYDDSDRPRGIPERFSGSNSGNTATLTISRVEAGDEADYYCQVWDGNSDHVVFGGGTKLTVLG", "values": [{"measurement": "Mean E max (%)", "setting": "[1]", "value": 100, "unit": "%"}, {"measurement": "Mean EC50", "setting": "[1]", "value": 143, "unit": "pM"}, {"measurement": "koff", "setting": "[2]", "value": "4.9e-05", "unit": "s⁻¹"}]}
{"binder": "16H7 variant, light chain S55F (antibody, IgG4, V domains shown, IgG4 backbone; copies: 2 + 2) VH: not shown VL: SYVLTQPPSVSVAPGQTARITCGGNNIGSESVHWYQQKPGQAPVLVVYDDSDRPFGIPERFSGSNSGNTATLTISRVEAGDEADYYCQVWDGNSDHVVFGGGTKLTVLG", "values": [{"measurement": "Mean E max (%)", "setting": "[1]", "value": 97, "unit": "%"}, {"measurement": "Mean EC50", "setting": "[1]", "value": 95, "unit": "pM"}, {"measurement": "koff", "setting": "[2]", "value": "2.4e-05", "unit": "s⁻¹"}]}
{"binder": "16H7 variant, light chain S55Y (antibody, IgG4, V domains shown, IgG4 backbone; copies: 2 + 2) VH: not shown VL: SYVLTQPPSVSVAPGQTARITCGGNNIGSESVHWYQQKPGQAPVLVVYDDSDRPYGIPERFSGSNSGNTATLTISRVEAGDEADYYCQVWDGNSDHVVFGGGTKLTVLG", "values": [{"measurement": "Mean E max (%)", "setting": "[1]", "value": 113, "unit": "%"}, {"measurement": "Mean EC50", "setting": "[1]", "value": 126, "unit": "pM"}, {"measurement": "koff", "setting": "[2]", "value": "1.8e-05", "unit": "s⁻¹"}]}
{"binder": "16H7 variant, light chain S55L (antibody, IgG4, V domains shown, IgG4 backbone; copies: 2 + 2) VH: not shown VL: SYVLTQPPSVSVAPGQTARITCGGNNIGSESVHWYQQKPGQAPVLVVYDDSDRPLGIPERFSGSNSGNTATLTISRVEAGDEADYYCQVWDGNSDHVVFGGGTKLTVLG", "values": [{"measurement": "Mean E max (%)", "setting": "[1]", "value": 97, "unit": "%"}, {"measurement": "Mean EC50", "setting": "[1]", "value": 126, "unit": "pM"}, {"measurement": "koff", "setting": "[2]", "value": "8.4e-05", "unit": "s⁻¹"}]}
{"binder": "16H7 variant, light chain S55I (antibody, human IgG4 S228P, lambda, V domains shown, IgG4 backbone) VH: not shown VL: SYVLTQPPSVSVAPGQTARITCGGNNIGSESVHWYQQKPGQAPVLVVYDDSDRPIGIPERFSGSNSGNTATLTISRVEAGDEADYYCQVWDGNSDHVVFGGGTKLTVLG", "values": [{"measurement": "Mean E max (%)", "setting": "[1]", "value": 110, "unit": "%"}, {"measurement": "Mean EC50", "setting": "[1]", "value": 133, "unit": "pM"}, {"measurement": "koff", "setting": "[2]", "value": "1.3e-05", "unit": "s⁻¹"}]}
{"binder": "16H7 variant, light chain S55H (antibody, human IgG4 S228P, lambda, V domains shown, IgG4 backbone) VH: not shown VL: SYVLTQPPSVSVAPGQTARITCGGNNIGSESVHWYQQKPGQAPVLVVYDDSDRPHGIPERFSGSNSGNTATLTISRVEAGDEADYYCQVWDGNSDHVVFGGGTKLTVLG", "values": [{"measurement": "Mean E max (%)", "setting": "[1]", "value": 111, "unit": "%"}, {"measurement": "Mean EC50", "setting": "[1]", "value": 122, "unit": "pM"}, {"measurement": "koff", "setting": "[2]", "value": "4e-06", "unit": "s⁻¹"}]}
{"binder": "16H7 variant, light chain S55T (antibody, human IgG4 S228P, lambda, V domains shown, IgG4 backbone) VH: not shown VL: SYVLTQPPSVSVAPGQTARITCGGNNIGSESVHWYQQKPGQAPVLVVYDDSDRPTGIPERFSGSNSGNTATLTISRVEAGDEADYYCQVWDGNSDHVVFGGGTKLTVLG", "values": [{"measurement": "Mean E max (%)", "setting": "[1]", "value": 100, "unit": "%"}, {"measurement": "Mean EC50", "setting": "[1]", "value": 109, "unit": "pM"}, {"measurement": "koff", "setting": "[2]", "value": "1.3e-05", "unit": "s⁻¹"}]}
{"binder": "16H7 variant, light chain S55V (antibody, human IgG4 S228P, lambda, V domains shown, IgG4 backbone) VH: not shown VL: SYVLTQPPSVSVAPGQTARITCGGNNIGSESVHWYQQKPGQAPVLVVYDDSDRPVGIPERFSGSNSGNTATLTISRVEAGDEADYYCQVWDGNSDHVVFGGGTKLTVLG", "values": [{"measurement": "Mean E max (%)", "setting": "[1]", "value": 100, "unit": "%"}, {"measurement": "Mean EC50", "setting": "[1]", "value": 131, "unit": "pM"}, {"measurement": "koff", "setting": "[2]", "value": "4.4e-05", "unit": "s⁻¹"}]}
{"binder": "16H7 variant, light chain S55P (antibody, human IgG4 S228P, lambda, V domains shown, IgG4 backbone) VH: not shown VL: SYVLTQPPSVSVAPGQTARITCGGNNIGSESVHWYQQKPGQAPVLVVYDDSDRPPGIPERFSGSNSGNTATLTISRVEAGDEADYYCQVWDGNSDHVVFGGGTKLTVLG", "values": [{"measurement": "Mean E max (%)", "setting": "[1]", "value": 99, "unit": "%"}, {"measurement": "Mean EC50", "setting": "[1]", "value": 109, "unit": "pM"}, {"measurement": "koff", "setting": "[2]", "value": "3.2e-05", "unit": "s⁻¹"}]}
{"binder": "16H7 variant, light chain S55G (antibody, human IgG4 S228P, lambda, V domains shown, IgG4 backbone) VH: not shown VL: SYVLTQPPSVSVAPGQTARITCGGNNIGSESVHWYQQKPGQAPVLVVYDDSDRPGGIPERFSGSNSGNTATLTISRVEAGDEADYYCQVWDGNSDHVVFGGGTKLTVLG", "values": [{"measurement": "Mean E max (%)", "setting": "[1]", "value": 104, "unit": "%"}, {"measurement": "Mean EC50", "setting": "[1]", "value": 128, "unit": "pM"}, {"measurement": "koff", "setting": "[2]", "value": "3.5e-05", "unit": "s⁻¹"}]}
{"binder": "16H7 variant, light chain S55N (antibody, human IgG4 S228P, lambda, V domains shown, IgG4 backbone) VH: not shown VL: SYVLTQPPSVSVAPGQTARITCGGNNIGSESVHWYQQKPGQAPVLVVYDDSDRPNGIPERFSGSNSGNTATLTISRVEAGDEADYYCQVWDGNSDHVVFGGGTKLTVLG", "values": [{"measurement": "Mean E max (%)", "setting": "[1]", "value": 111, "unit": "%"}, {"measurement": "Mean EC50", "setting": "[1]", "value": 141, "unit": "pM"}, {"measurement": "koff", "setting": "[2]", "value": "1.7e-05", "unit": "s⁻¹"}]}
